Sequences and labels used below:
B1: AZIN with a C-terminal Clover (GFP) tag (natural protein)
chain: MKGFIDDANYSVGLLDEGTNLGNVIDNYVYEHTLTGKNAFFVGDLGKIVKKHSQWQNVVAQIKPFYTVKCNSAPAVLEILAALGTGFACSSKNEMALVQELGVPPENIIYISPCKQVSQIKYAAKVGVNILTCDNEIELKKIARNHPNAKVLLHIATEDNIGGEEGNMKFGTTLKNCRHLLECAKELDVQIIGVKFHVSSACKESQVYVHALSDARCVFDMAGEIGFTMNMLDIGGGFTGTEFQLEEVNHVISPLLDIYFPEGSGVKIISEPGSYYVSSAFTLAVNIIAKKVVENDKFPSGVEKTGSDEPAFMYYMNDGVYGSFASKLSEDLNTIPEVHKKYKEDEPLFTSSLWGPSCDELDQIVESCLLPELNVGDWLIFDNMGADSFHEPSAFNDFQRPAIYYMMSFSDWYEMQDAGITSDSMMKNFFFVPSCIQLSQEDSFSAEA
B2: Clover-AZIN (antizyme inhibitor with an N-terminal Clover tag) (natural protein)
chain: B1 chain
B3: antizyme-mRuby2 (antizyme with a C-terminal mRuby2 tag) (natural protein)
chain: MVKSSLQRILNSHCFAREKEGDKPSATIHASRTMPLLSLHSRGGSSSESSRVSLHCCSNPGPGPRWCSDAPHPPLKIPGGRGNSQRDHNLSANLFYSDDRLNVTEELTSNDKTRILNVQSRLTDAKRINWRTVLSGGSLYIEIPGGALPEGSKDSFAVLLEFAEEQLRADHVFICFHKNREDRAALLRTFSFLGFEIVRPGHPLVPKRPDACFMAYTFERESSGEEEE

Common to all, as to assay: FRET
Assay [1] addresses B3.
In assay [2] the target is antizyme with an N-terminal mRuby2 tag (human, UniProt P54368 1-228).
A further assay deals with Clover-AZIN A325N (human, UniProt O14977 1-448, A325N).

Sequence of antizyme with an N-terminal mRuby2 tag (P54368 whole entry): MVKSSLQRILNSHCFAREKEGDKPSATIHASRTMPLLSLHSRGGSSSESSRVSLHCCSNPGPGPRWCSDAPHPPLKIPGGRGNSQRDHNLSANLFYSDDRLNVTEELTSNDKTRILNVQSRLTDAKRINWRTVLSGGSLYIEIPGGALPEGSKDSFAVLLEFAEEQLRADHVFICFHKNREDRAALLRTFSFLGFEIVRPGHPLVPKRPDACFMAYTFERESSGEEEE

In general, Kd refers to the equilibrium constant for the complex coming apart. A high value points to lower affinity. For the molecule B1, the Kd in assay [1] was found to be 29 nM; in assay [2] it was 89 nM.
Regarding B2, the Kd in assay [2] turned out to be 80 nM.
B3 returned a Kd in the assay with Clover-AZIN A325N of 35.6 nM.

The values above are taken from PMC6420652 (2019).
